Laboratory results reported in US20190381183A1 (TEXAS A AND M UNIVERSITY SYSTEM, published 2019).

Tests used:
[1] = target: T1, recombinant human HER2 (extracellular domain)-Fc fusion protein (human, UniProt P04626 23-652); test: SPR (BIAcore T200), antibody injected over immobilized HER2-ECD-Fc, pH 5.8, apparent KD (FIG. 4B); pH 5.8
T1 construct: extracellular domain; Bought reagent; also called HER2-ECD-Fc; HER-extracellular domain (ECD)-Fc fusion; not shown: immunoglobulin Fc fragment of the bought fusion protein

[2] = target: T1, recombinant human HER2 (extracellular …); test: SPR, antibody injected over immobilized HER2-ECD-Fc, apparent equilibrium dissociation constant, pH 5.8
[3] = target: T1, recombinant human HER2 (extracellular …); test: SPR, antibody injected over immobilized HER2-ECD-Fc, apparent equilibrium dissociation constant, pH 6.5
[4] = target: T1, recombinant human HER2 (extracellular …); test: SPR, antibody injected over immobilized HER2-ECD-Fc, apparent equilibrium dissociation constant, pH 7.0
[5] = target: T1, recombinant human HER2 (extracellular …); test: SPR, antibody injected over immobilized HER2-ECD-Fc, apparent equilibrium dissociation constant, pH 7.4

Kd [1]: > 1500 nM | Kd [2]: 1630 nM | Kd [3]: 67.9 nM | Kd [4]: 22.1 nM | Kd [5]: 6.3 nM
B1: YS mutant of pertuzumab (Tyr55 to histidine in the light chain variable domain and Ser103 to histidine in the heavy chain variable domain) (antibody, human IgG1, V domains shown)
VH: QVQLQESGGGLVQPGGSLRLSCAASGFTFTDYTMDWVRQAPGKGLEWVADVNPNSGGSIYNQRFKGRFTLSVDRSKNTLYLQMNSLRAEDTAVYYCARNLGPHFYFDYWGQGTLVTVSS
VL: DIELTQSPSSLSASVGDRVTITCKASQDVSIGVAWYQQKPGKAPKLLIYSASYRHTGVPSRFSGSGSGTDFTLTISSLQPEDFATYYCQQYYIYPYTFGQGTKLEIKR
notes: Tested without conjugated drug in the SPR assay; also called YS variant of pertuzumab
